# In the NTF2 design screens of Basanta et al. (2020):
# Assay: protease stability score; higher = more stable; yeast display proteolysis, trypsin and chymotrypsin;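 note: relative to predicted unfolded state with 0 unfolded-like and 1 meaning tenfold more protease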
row,Sequence,protease stability score
1,SEEEWLTEYIWRVFIRLLLTGDERAINKLLDPHVQVDVGDKRIHGRELLSHIWRTEAEEIRHHIEVKRFHSQGEKVHHDVRITIIINGQVHRIEAHIHLFIYDGRITHIEVEFR,1.36
2,SEEEYWAKEMAILLDIAWYTGDEERFEEYVDPNTRIDFDGRVFHGREFLHHFRERVDHMREVRSRIESVHKQGDKLRVHGHLIIQGVIDGVDTQQRFKVHFIMEKVDGRWIFREEIYK,1.51
3,SEEFEILFRLLEELDRAFETGDFKRFMELADPHTRLDVGEFHHWGREKVLEFWRHWRVKHVRVEFKRIDYQGDKLHTDGILRHTGEINGQETHEETRTNIHLIVINGRMHALEVRII,2.01
4,SEEFEIYKRASELLAHLMLTGDFDTMNKLMDPNVRLDVDGVDFHGRELVNRKFQHMRIEHTHIERVIWIGDKVHVHTTMTGNIDGRRDERKMEIVSHKVDGRWHVHSVIIL,1.12
5,SEEHDKLQRLIRQWWSEFETGDEDKLTEMFDPHARLHIDGRDVIGRENVSKFVFDFFFEMRIHRTHIEHVDAQGDFLILHYHVRGTVNGRESDIHVLIIFTVVNGRMKSVHVHNE,1.38
6,SEEHEDAEKWIRILLRDLKTGDEESLFQLLDPHTKLEVGDKHFHGREQVMRYVLHELKRVDHMEVELKHHHIQGEKAHLDIEVHNIFDGRVFVKHVHIDSKKINGRWRQEKIYIE,1.33
7,SEEHEDAHEMFELWSILLITGDERILHQLMDPDAKTTIDGQEFHGREKLIEVFREFLKRIDHIHEVEVTRMTFFDGRLHINLRVHVTINGVHRQFRVIIIIVKIDGRWVIQSQEIV,1.63
8,SEEHEDIKKFLDDLHSAWNTGDWKALEHMLDPHVKFEINGRNFVGREEVRKLLEQIRLHPRSEIKDVRMQGEFVIVDGRVKIKINVNGREHHEVQEIILYLRKVNGKWYIEEIEIR,1.54
9,SEEHEEAEHWVRLFIEFMLTGDFDEYRQLMDPNDYIEVGDKSLIGMENWHHLLNRVKNLTIRVKRVRVRVVNGRIHVEMDVRDIINGQEVETRIEMVAVKVNGRWLLKTVHLERE,1.74
10,SEEHEEERHHVEDLLRALWTGNEEHLKKLADPHMRTILIVNGKQLDLHGWRDMWRALREIRERLGIDHEHIHRSRIYNGRLEIDSRVEVDGVHHIVKIRVDVIDGKNHEFKIEFR,1.63
11,SEEHEEVERLMRIYFEERLTGDWDRWLSNVDPHTRIIIEIGDKRIELHGWKDFLRFLRFIKNITIHHVHIRHVDVQGDKAHVDEEIDVTIGDKRTKITHEMIIIVVNGRIKHVYERYI,1.44
12,SEEHEEVHKVIEMLVRHARTGDEDYLRNQFDPNARVRFNGKDRHGRESLDEMLKQFDVIKEVRIKRIDVQGEKIHADIEIRGRYNGQEINTESHIVFKKINGQWIIEEVEFK,1.6
13,SEEHEFWERLARLTLHWLETGDWDKMNKNADPNVRTEVNGQELHGRESTTEIMRRDEKFFKNARFHLESMDVQGDKVHLIFEVDYNGRTIRRHLDWVIINGRFKEIRVEIR,1.17
14,SEEHEHIRRVWEEIRRVLETGDEEALMRMIDPNVRIRNVQGDKELDIHGRESVVRRILKIFQEIWFDFEDRHIDIQGDKLHIEGHLILRVNGREHRLDVREVWVVVNGVIHTVEFMVE,1.29
15,SEEHEIIERMMRLFLNYYFTGDEESIQKNADPDVKLNINGRDIHGRERIAEHLFDEIKHLRWHHLHIHSFIVQGEKARVDTRFDGEVDGVRTIFETEIILVVVNGRMKSIEVHRR,1.28
16,SEEHEISERLAWMIFELYRTGNEQSIRHLMDPRARIDVNGKEIHGRHIWKERFEEHLVFFKNLRFHLDDVDVQGDKIDIHGTNRFDGRHVRFDLHIHVVDGRLKVITVRIDER,1.55
17,SEEHEKLHHLMELMLNAITTGDWEIIEHLADPNVRIDQGEWHDHGREKLIHIHELVRERMGIKHVEVRDSRMFHINGVVVIILRLDLNVNGKHRFEILRLQFRKVDGQWVMHSLDIELR,1.74
18,SEEHEKTRRALELWIDVMKTGDPEHILRLLDPHTKIHQGEFELHGRHDAHRWLSRLGVERIHFELKDVRYFDGQILVDGVIFFNGRESRVNVVAMKVNGRWFVDSLEIQ,0.755
19,SEEHELAESMAEEVLRSFLTGDEDTLHELFDPHVRVNYNGKVFHGREKLIKILNELRWDHTTVKRIEIRYYGDKVEVVLHVEIHFEINGQRISHRVDIIIIAEKVNGRWRVRDFIYIEK,1.35
20,SEEHELSHHWADLMFHWMLTGDEEMFEHFADPHVRLHVNGKDIHGREKFVEWLREELEKIKNLTYRLHDVEIQGDKVHLTVKVDVNGKRLDTRVHIDLVNGRVRSIEIRHR,1.42
21,SEEHEMLKRIMELVIHLFLTGNEDWLRELIDPDTRLHINGVDNHGREEAIRWLHEYNKHLRIHTMEIKRLDVVNGQAHSHVHHEWTINGKQHETEMELIVVVVNGKVKSQELRIK,0.629
22,SEEHEQLLRMAQIWIKNWLTGDEKSMIELADPRVLFIYGDKIHHGWEEMSKFLHRLMEEIRIEDLRIDSFRAYNGRVEHDTTIDVEIGDKRINLKHHFHLDVVDGRIRHVKVKID,0.726
23,SEEHERIKRASEEIWRMSETGDFETFFNNFDPNARSDVDGVFNHGREELHRVLLEFWHKLGLTRIDAKVHDDHSFENHLKVDLEERFDGRTVEVRIISRKYDGRWFYTDLIIIRR,0.169
24,SEEHESSQKAIELLWHSMETGDEKLTEDFADPHVRLEFNGVRFHGRDQMNEIIHRQLREMRLKSIHLHHIYSFNGRVHIHGEVIGRVDGRELSHEMEIVAVKVDGKWVLKSLRIH,1.2
25,SEEHETMNKLASDLIHDWLTGDWENTKELLDPHVKIDERVNGKNHQHHGREELVRILRERHEKIKGLRISIHHWEVINGRLHMDLRLHINGKTFSVEIHITIVDGRVKHIHVDIN,1.22
